Test results from publication PMC10094569.

Target: human IgG1 Fc, from HEK-293T cells (human)
Experiment: SEC; each protein alone on Superdex 200 in PBS; molecular weights from the filtration patterns

human IgG1 Fc, from HEK-293T cells (domain or fragment)
stoichiometry N: 2
